# B1: Pse08-08 (M08s-ds17-M08s) (structured_DNA)
# DNA: GTCACTAGAGGTCAGATGATGGGGATGGGGGGTTGGAGGAATGGATGACCTCTAGTGACTGATTTACGAGGTCAGATGATGGGGATGGGGGGTTGGAGGAATGGATGACCTCGTAAATCA
# B2: Pse08-29 (M08s-ds17-TBA29) (structured_DNA)
# DNA: GTCACTAGAGGTCAGATGATGGGGATGGGGGGTTGGAGGAATGGATGACCTCTAGTGACTGATTTACGAGTCCGTGGTAGGGCAGGTTGGGGTGACTCGTAAATCA
# Assays:
# [1] = biological target: T1, alpha-thrombin (human) (Homo sapiens, UniProt P00734;P00734 315-363;364-622); assay: SPR; SPR (Biacore X100, CM5, single-cycle kinetics, 1:1 fit): PBS pH 7.4, 0.05% (v/v) Tween 20; aptamers annealed in PBS (95 to 25 C); 1 M NaCl regeneration; assay t
# [2] = biological target: T2, alpha-thrombin (mouse) (Mus musculus, UniProt P19221;P19221 312-360;361-618); assay: SPR; SPR (Biacore X100, CM5, single-cycle kinetics, 1:1 fit): PBS pH 7.4, 0.05% (v/v) Tween 20; aptamers annealed in PBS (95 to 25 C); 1 M NaCl regeneration; assay temperature not stated; conditions: protein: commercial, copies: 1;1
# [3] = biological target: T1, alpha-thrombin (human); assay: SPR; 1:1 approximation; SPR (Biacore X100, CM5, single-cycle kinetics, 1:1 fit): PBS pH 7.4, 0.05% (v/v) Tween 20; aptamers annealed in PBS (95 to 25 C); 1 M NaCl regeneration; assay t
# [4] = biological target: T2, alpha-thrombin (mouse); assay: SPR; 1:1 approximation; SPR (Biacore X100, CM5, single-cycle kinetics, 1:1 fit): PBS pH 7.4, 0.05% (v/v) Tween 20; aptamers annealed in PBS (95 to 25 C); 1 M NaCl regeneration; assay temperature not stated; conditions: protein: commercial; copies: 1;1; pseudo-circular, 17 bp duplex linker
binder,measurement,setting,value
B1,Kd,[1],0.4 nM
same,Kd,"[2]; pseudo-circular, 17 bp duplex linker",4.2 nM
B2,Kd,[3],2.6 nM
same,Kd,[4],6.3 nM
AGGTCAGATGATGGGGATGGGGGGTTGGAGGAATGGATGACCT (structured_DNA) [M08s-1 (M08s)],Kd,[1],47.2 nM
same,Kd,[2]; predicted G4 with stem,495 nM
AGTCCGTGGTAGGGCAGGTTGGGGTGACT (structured_DNA) [TBA29 (HD22)],Kd,[1],36.9 nM
same,Kd,[2],22 nM

# — PMC10445101, “A neutralizable dimeric anti-thrombin aptamer with potent anticoagulant activity in mice”
